Article PMC9993738

Target: SARS-CoV-2 spike S1 subunit (SARS-CoV-2, UniProt P0DTC2 14-685)
Test: bead-based fluorescence

B1: SpS1-C4 (ssDNA)
DNA: GAACATTGGCGTCCGTGAGCAGCTCGTGGTTGTTTGCTTGTATACTTTTGTGGTTTATCTTGTTTCTGATCACTTCCTCAAACGCCCAA
binding result: binds

B2: SpS1-C1 (ssDNA)
DNA: GAACATTGGCGTCCGTGAGTGAGACCATAGTCCAGCGAACTAAACCTACCCTAAAGGGCAAGGAAGACGGGCACTTCCTCAAACGCCCAA
binding result: binds
